Legend:
HSCs [1] = experiment: HSC-to-myofibroblast transformation (ACTA2/Collagen I, Operetta); assay type: cell-based, human; settings: IL-11 5 ng/ml, 24 h
Experimental: Cells (atrial fibroblasts, HSCs and hepatocytes) were grown and maintained at 37° C. and 5% CO2. The growth medium was renewed every 2-3 days and cells were passaged at 80-90% confluence using standard trypsinization techniques. All the experiments were carried out at low cell passage (P1-P2). Cells were serum-starved for 16 h prior to stimulations. Stimulated cells were compared to unstimulated cells that have been grown for the same duration under the same conditions (serum-free media), but without the stimuli.
HSCs (5300, ScienCell) were cultured in stellate cells complete media (5301, ScienCell) on poly-L-lysine-coated plates (2 μg/cm2, 0403, ScienCell).
The Operetta assay was performed mostly as described previously 11 with minor modifications described here: HSCs or hepatocytes were seeded in 96-well black CellCarrier plates (PerkinElmer) at a density of 5×10^3 cells per well. Following experimental conditions, cells were fixed in 4% paraformaldehyde (PFA, 28908, Thermo Fisher), permeabilized with 0.1% Triton X-100 (Sigma) and non-specific sites were blocked with 0.5% BSA and 0.1% Tween-20 in PBS. Cells were incubated overnight (4° C.) with primary antibodies (1:500), followed by incubation with the appropriate AlexaFluor 488 secondary antibodies (1:1000). Rhodamine Phalloidin staining (1:1000, R415, Thermo Fisher) was performed by overnight incubation (4° C.). […]

HSCs [2] = experiment: Matrigel invasion assay of HSCs; assay type: cell-based, human; settings: 48 h
Experimental: The invasive behavior of human HSCs was assayed using 24-well Boyden chamber invasion assays (Cell Biolabs Inc.). Equal numbers of HSCs in serum-free HSC media were seeded in triplicates onto the ECM-coated matrigel and were allowed to invade towards HSC media containing 0.2% FBS. After 48 h of incubation with stimuli, media was aspirated and non-invasive cells were removed using cotton swabs. The cells that invaded towards the bottom chamber were stained with cell staining solution (Cell Biolabs Inc.) and invasive cells from 5 non-overlapping fields/membrane were imaged and counted under 40× magnification. For antibody inhibition experiments, HSCs were pretreated with X203, X209, or IgG control antibodies for 15 m prior to addition of stimuli.

ERK = ERK activation in HSCs (Western blot); assay type: cell-based, human; settings: stimulation with IL-11
Experimental: Western blots were carried out on total protein extracts from HSCs and liver tissues. Both cells and frozen tissues were homogenized in radioimmunoprecipitation assay (RIPA) buffer containing protease and phosphatase inhibitors (Thermo Scientifics), followed by centrifugation to clear the lysate. Protein concentrations were determined by Bradford assay (Bio-Rad). Equal amount of protein lysates were separated by SDS-PAGE, transferred to PVDF membrane, and subjected to immunoblot analysis for the indicated primary antibodies. Proteins were visualized using the ECL detection system (Pierce) with the appropriate secondary antibodies.

HSCs [3] = experiment: CCL2 secretion by HSCs (ELISA); assay type: cell-based, human; settings: IL-11 5 ng/ml
Experimental: FIG. 31A to 31H. Neutralizing anti-IL-11 and anti-IL11 RA antibodies protect HFMCD-fed mice from hepatic fibrosis and inflammation. (A) CCL2 in the supernatants of HSCs (n=4/group) without stimulus (−), with IL-11, or with TGFβ1 in the presence of IgG, X203, or X209 by ELISA; IL-11 (5 ng m1^−1), TGFβ1 (5 ng m1^−1), IgG, X203, and X209 (2 μg m1^−1). (B) Representative gross liver images, (C) Western blots of hepatic ERK activation status, (D) representative (scale bars, 100 μm) and (E) quantification of Masson's Trichrome stained images of livers after 5 weeks of early X203 and X209 treatments. (F) Liver hydroxyproline content (the values of NC and HFMCD 1 week diets are the same as those used in FIG. 25C, the values of IgG 3 and 6 weeks are the same as those used in FIG. 22F, n≥5/group), (G) relative RNA expression levels of fibrosis markers in the livers after 5 weeks treatment of X203 and X209 by qPCR, which confirms data from RNA-seq (the values of NC 6 week for Col1a1, Col1a2, Col3a1, and Acta2 are the same as those shown in FIG. 28D, n≥5/group), and (H) serum ALT levels (the values of NC and HFMCD 1 week are the same as those used in FIG. 25D, the values of IgG 3 and 6 weeks (2 weeks and 5 weeks treatment, respectively) are the same as those used in FIG. 22G, n≥5/group). […]

[4] = system: primary human hepatocytes; experiment: Stimulation of primary human hepatocytes with IL11, hyperIL11, hyperIL6; assay type: cell-based
Experimental: Human hepatocytes (5200, ScienCell) were grown and maintained in hepatocyte media (5201, ScienCell) supplemented with 2% fetal bovine serum (FBS) and 1% Penicillin-streptomycin.
Primary human hepatocytes (5200, ScienCell) were maintained in hepatocyte medium ([…], ScienCell) supplemented with 2% fetal bovine serum, 1% Penicillin-streptomycin at 37° C. and 5% CO2. Hepatocytes (P2-P3) were serum-starved overnight unless otherwise specified in the methods prior to 24 hours stimulation with different doses of various recombinant proteins as described.
For surface IL11RA, IL6R, and gp130 analysis, primary human hepatocytes and THP-1 cells were stained with IL11RA, IL6R, or gp130 antibody and the corresponding Alexa Fluor 488 secondary antibody. Cell death analysis was performed by staining primary human hepatocytes with Dead Cell Apoptosis Kit with Annexin V FITC and PI (V13242, Thermo Fisher). PI+ve cells were then quantified with the flow cytometer (Fortessa, BD Biosciences) and analyzed with FlowJo version X software (TreeStar).
Alanine Aminotransferase (ALT) activity in the cell culture supernatant and mouse serum was measured using ALT Activity Assay Kit (ab105134, Abcam). Liver Glutathione (GSH) levels were measured using Glutathione Colorimetric Detection Kit (EIAGSHC, Thermo Fisher). Total hydroxyproline content in mouse livers was measured using Quickzyme Total Collagen assay kit (QZBtotco15, Quickzyme Biosciences). The levels of serum and liver triglycerides were measured using Triglyceride Assay Kit (ab65336, Abcam). Mouse serum levels of Aspartate Aminotransferase (AST) and cholesterol were measured using AST Assay Kit (ab105135, Abcam) and Cholesterol Assay Kit (ab65390; Abcam), respectively. All colorimetric assays were performed according to the manufacturer's protocol.
Western blots were carried out on total protein extracts from hepatocytes and liver tissues. Hepatocyte and liver tissue lysates were homogenized in RIPA Lysis and Extraction Buffer (89901, Thermo Scientific) containing protease and phosphatase inhibitors (Roche). Protein lysates were separated by SDS-PAGE and transferred to PVDF membranes. Protein bands were visualized using the ECL detection system (Pierce) with the appropriate secondary antibodies: anti-rabbit HRP or anti-mouse HRP.

PSCs = experiment: Pancreatic stellate cell (PSC) activation in vitro; assay type: cell-based; settings: treatment with IL-11, 24 hours
Experimental: FIGS. 48A and 48B. Box plots and images showing activation of pancreatic stellate cells (PSCs) to a αSMA-positive, collagen-expressing fibrogenic phenotype. (A) Quantification of high-content imaging assays for the percentage of ACTA2-positive cells and collagen I intensity/area following in vitro stimulation of PSCs for 24 hours with the indicated factors, in the presence or absence of neutralising anti-IL-11 RA antibody or IgG isotype control antibody. (B) Representative images for high-content imaging analysis of collagen I intensity/area following in vitro stimulation of PSCs for 24 hours with the indicated factors, in the presence of neutralising anti-IL-11 RA antibody or IgG isotype control antibody.

IL-11Rα = IL-11Rα alone, low affinity; cited from earlier work

B1: IL-11: Interleukin 11; recombinant human IL11 (UniProtKB:P20809) used to stimulate cells (protein, listed as Homo sapiens)
chain: MNCVCRLVLVVLSLWPDTAVAPGPPPGPPRVSPDPRAELDSTVLLTRSLLADTRQLAAQLRDKFPADGDHNLDSLPTLAMSAGALGALQLPGVLTRLRADLLSYLRHVQWLRRAGGSSLKTLEPELGTLQARLDRLLRRLQLLMSRLALPQPPPDPPAPPLAPPSSAWGGIRAAHAILGGLHLTLDWAVRGLLLLKTRL
modifications: IL-11 (UniProt P20809)
notes: Interleukin 11; recombinant human IL11 (UniProtKB:P20809) used to stimulate cells
activation of HSCs into ACTA2+ve myofibroblasts (HSCs [1]): activated HSCs to a similar extent as TGFβ1 or PDGF | matrix invasion by HSCs (HSCs [2]): promoted dose-dependent matrix invasion | ERK activation in HSCs (ERK): directly activates ERK | HSC production of CCL2 (HSCs [3]): stimulated HSC production of CCL2 | hepatocyte cell death ([4]; IL11 0.625 ng/ml to 20 ng/ml): caused hepatocyte cell death | expression of stress fibres in hepatocytes ([4]; IL-11, dose range): progressive increase in expression of stress fibres | release of ALT from hepatocytes ([4]; physiological levels of IL-11): dose-dependent release of ALT | PSC activation (PSCs): triggered | Kd (IL-11Rα): ~10 nM

From patent US11813311B2, “Treatment and prevention of metabolic diseases” (Singapore Health Services PTE LTD., priority 2019, dated 2023)
